Here are results for one substance from PMC6908751.

Assay [1] deals with Sh2 N9 Y169aH NA ectodomain (stabilized tetramer) (influenza A virus A/Shanghai/02/2013 (H7N9)).
Assay [2] shares this target. The experiment in a line: crystal structure.

Where two headings read alike, the source gives them in different places.

Broadly, the stoichiometry N is a count of units in the complex or per binding partner. Turning to “Sh2 N9 Y169aH NA ectodomain (stabilized tetramer) (domain or fragment)”, the stoichiometry N in assay [1] and in assay [2] was 4 in each case.
